The text below walks through data of patent publication US20140087995A1 (published 2014).

Numbered stars: 1 amine (or outer) side, 2 acyl side, 3 side chain; on linkers, the order of the positions; unused ones are H or OH. Bridge positions count the residues as written; N and C are the ends. Side chains are listed from the residue outwards. Ends that are not written are not given here. * marks the point of attachment. C20 diacid = O=C(O)CCCCCCCCCCCCCCCCCCC(=O)*; γGlu = O=C(O)[C@H](CCC(=O)[*:2])N[*:1]

The chains are these.
B1: N^ε1-[(4S)-4-carboxy-4-(19-carboxynonadecanoylamino)butanoyl]-[Glu14,Arg17,Pro21,Pro27,His34,Glu35]-h-amylin (peptide)
peptide: K([γGlu-C20 diacid])CNTATCATQRLAEFLRHSSPNFGAIPSSTNVGHETY-NH2
modifications: disulfide 2-7; N-terminus assumed
SMILES: CC[C@H](C)[C@H](NC(=O)[C@H](C)NC(=O)CNC(=O)[C@H](Cc1ccccc1)NC(=O)[C@H](CC(N)=O)NC(=O)[C@@H]1CCCN1C(=O)[C@H](CO)NC(=O)[C@H](CO)NC(=O)[C@H](Cc1c[nH]cn1)NC(=O)[C@H](CCCNC(=N)N)NC(=O)[C@H](CC(C)C)NC(=O)[C@H](Cc1ccccc1)NC(=O)[C@H](CCC(=O)O)NC(=O)[C@H](C)NC(=O)[C@H](CC(C)C)NC(=O)[C@H](CCCNC(=N)N)NC(=O)[C@H](CCC(N)=O)NC(=O)[C@@H](NC(=O)[C@H](C)NC(=O)[C@@H]1CSSC[C@H](NC(=O)[C@@H](N)CCCCNC(=O)CC[C@H](NC(=O)CCCCCCCCCCCCCCCCCCC(=O)O)C(=O)O)C(=O)N[C@@H](CC(N)=O)C(=O)N[C@@H]([C@@H](C)O)C(=O)N[C@@H](C)C(=O)N[C@@H]([C@@H](C)O)C(=O)N1)[C@@H](C)O)C(=O)N1CCC[C@H]1C(=O)N[C@@H](CO)C(=O)N[C@@H](CO)C(=O)N[C@H](C(=O)N[C@@H](CC(N)=O)C(=O)N[C@H](C(=O)NCC(=O)N[C@@H](Cc1c[nH]cn1)C(=O)N[C@@H](CCC(=O)O)C(=O)N[C@H](C(=O)N[C@@H](Cc1ccc(O)cc1)C(N)=O)[C@@H](C)O)C(C)C)[C@@H](C)O
notes: also called compound 107
B2: N^ε1-[(4S)-4-carboxy-4-[[(4S)-4-carboxy-4-(19-carboxynonadecanoylamino)butanoyl]amino]butanoyl]-[Glu14,Arg17,Pro21,Pro27,Pro34,Glu35]-h-amylin (peptide)
peptide: K([γGlu-γGlu-C20 diacid])CNTATCATQRLAEFLRHSSPNFGAIPSSTNVGPETY-NH2
modifications: disulfide 2-7; N-terminus assumed
SMILES: CC[C@H](C)[C@H](NC(=O)[C@H](C)NC(=O)CNC(=O)[C@H](Cc1ccccc1)NC(=O)[C@H](CC(N)=O)NC(=O)[C@@H]1CCCN1C(=O)[C@H](CO)NC(=O)[C@H](CO)NC(=O)[C@H](Cc1c[nH]cn1)NC(=O)[C@H](CCCNC(=N)N)NC(=O)[C@H](CC(C)C)NC(=O)[C@H](Cc1ccccc1)NC(=O)[C@H](CCC(=O)O)NC(=O)[C@H](C)NC(=O)[C@H](CC(C)C)NC(=O)[C@H](CCCNC(=N)N)NC(=O)[C@H](CCC(N)=O)NC(=O)[C@@H](NC(=O)[C@H](C)NC(=O)[C@@H]1CSSC[C@H](NC(=O)[C@@H](N)CCCCNC(=O)CC[C@H](NC(=O)CC[C@H](NC(=O)CCCCCCCCCCCCCCCCCCC(=O)O)C(=O)O)C(=O)O)C(=O)N[C@@H](CC(N)=O)C(=O)N[C@@H]([C@@H](C)O)C(=O)N[C@@H](C)C(=O)N[C@@H]([C@@H](C)O)C(=O)N1)[C@@H](C)O)C(=O)N1CCC[C@H]1C(=O)N[C@@H](CO)C(=O)N[C@@H](CO)C(=O)N[C@H](C(=O)N[C@@H](CC(N)=O)C(=O)N[C@H](C(=O)NCC(=O)N1CCC[C@H]1C(=O)N[C@@H](CCC(=O)O)C(=O)N[C@H](C(=O)N[C@@H](Cc1ccc(O)cc1)C(N)=O)[C@@H](C)O)C(C)C)[C@@H](C)O
B3: N^ε1-[(4S)-4-carboxy-4-[[(4S)-4-carboxy-4-(19-carboxynonadecanoylamino)butanoyl]amino]butanoyl]-[Glu14,Arg17,Pro21,Pro27,Arg34,Glu35]-h-amylin (peptide)
peptide: K([γGlu-γGlu-C20 diacid])CNTATCATQRLAEFLRHSSPNFGAIPSSTNVGRETY-NH2
modifications: disulfide 2-7; N-terminus assumed
SMILES: CC[C@H](C)[C@H](NC(=O)[C@H](C)NC(=O)CNC(=O)[C@H](Cc1ccccc1)NC(=O)[C@H](CC(N)=O)NC(=O)[C@@H]1CCCN1C(=O)[C@H](CO)NC(=O)[C@H](CO)NC(=O)[C@H](Cc1c[nH]cn1)NC(=O)[C@H](CCCNC(=N)N)NC(=O)[C@H](CC(C)C)NC(=O)[C@H](Cc1ccccc1)NC(=O)[C@H](CCC(=O)O)NC(=O)[C@H](C)NC(=O)[C@H](CC(C)C)NC(=O)[C@H](CCCNC(=N)N)NC(=O)[C@H](CCC(N)=O)NC(=O)[C@@H](NC(=O)[C@H](C)NC(=O)[C@@H]1CSSC[C@H](NC(=O)[C@@H](N)CCCCNC(=O)CC[C@H](NC(=O)CC[C@H](NC(=O)CCCCCCCCCCCCCCCCCCC(=O)O)C(=O)O)C(=O)O)C(=O)N[C@@H](CC(N)=O)C(=O)N[C@@H]([C@@H](C)O)C(=O)N[C@@H](C)C(=O)N[C@@H]([C@@H](C)O)C(=O)N1)[C@@H](C)O)C(=O)N1CCC[C@H]1C(=O)N[C@@H](CO)C(=O)N[C@@H](CO)C(=O)N[C@H](C(=O)N[C@@H](CC(N)=O)C(=O)N[C@H](C(=O)NCC(=O)N[C@@H](CCCNC(=N)N)C(=O)N[C@@H](CCC(=O)O)C(=O)N[C@H](C(=O)N[C@@H](Cc1ccc(O)cc1)C(N)=O)[C@@H](C)O)C(C)C)[C@@H](C)O
B4: N^ε1-[(4S)-4-carboxy-4-(19-carboxynonadecanoylamino)butanoyl]-[His14,Arg17,Pro21,Pro27,Pro34,Pro37]-h-amylin (peptide)
peptide: K([γGlu-C20 diacid])CNTATCATQRLAHFLRHSSPNFGAIPSSTNVGPNTP-NH2
modifications: disulfide 2-7; N-terminus assumed
SMILES: CC[C@H](C)[C@H](NC(=O)[C@H](C)NC(=O)CNC(=O)[C@H](Cc1ccccc1)NC(=O)[C@H](CC(N)=O)NC(=O)[C@@H]1CCCN1C(=O)[C@H](CO)NC(=O)[C@H](CO)NC(=O)[C@H](Cc1c[nH]cn1)NC(=O)[C@H](CCCNC(=N)N)NC(=O)[C@H](CC(C)C)NC(=O)[C@H](Cc1ccccc1)NC(=O)[C@H](Cc1c[nH]cn1)NC(=O)[C@H](C)NC(=O)[C@H](CC(C)C)NC(=O)[C@H](CCCNC(=N)N)NC(=O)[C@H](CCC(N)=O)NC(=O)[C@@H](NC(=O)[C@H](C)NC(=O)[C@@H]1CSSC[C@H](NC(=O)[C@@H](N)CCCCNC(=O)CC[C@H](NC(=O)CCCCCCCCCCCCCCCCCCC(=O)O)C(=O)O)C(=O)N[C@@H](CC(N)=O)C(=O)N[C@@H]([C@@H](C)O)C(=O)N[C@@H](C)C(=O)N[C@@H]([C@@H](C)O)C(=O)N1)[C@@H](C)O)C(=O)N1CCC[C@H]1C(=O)N[C@@H](CO)C(=O)N[C@@H](CO)C(=O)N[C@H](C(=O)N[C@@H](CC(N)=O)C(=O)N[C@H](C(=O)NCC(=O)N1CCC[C@H]1C(=O)N[C@@H](CC(N)=O)C(=O)N[C@H](C(=O)N1CCC[C@H]1C(N)=O)[C@@H](C)O)C(C)C)[C@@H](C)O
B5: N^ε1-[(4S)-4-carboxy-4-(19-carboxynonadecanoylamino)butanoyl]-[Glu14,Arg17,Pro21,Pro27,Pro34,Pro37]-h-amylin (peptide)
peptide: K([γGlu-C20 diacid])CNTATCATQRLAEFLRHSSPNFGAIPSSTNVGPNTP-NH2
modifications: disulfide 2-7; N-terminus assumed
SMILES: CC[C@H](C)[C@H](NC(=O)[C@H](C)NC(=O)CNC(=O)[C@H](Cc1ccccc1)NC(=O)[C@H](CC(N)=O)NC(=O)[C@@H]1CCCN1C(=O)[C@H](CO)NC(=O)[C@H](CO)NC(=O)[C@H](Cc1c[nH]cn1)NC(=O)[C@H](CCCNC(=N)N)NC(=O)[C@H](CC(C)C)NC(=O)[C@H](Cc1ccccc1)NC(=O)[C@H](CCC(=O)O)NC(=O)[C@H](C)NC(=O)[C@H](CC(C)C)NC(=O)[C@H](CCCNC(=N)N)NC(=O)[C@H](CCC(N)=O)NC(=O)[C@@H](NC(=O)[C@H](C)NC(=O)[C@@H]1CSSC[C@H](NC(=O)[C@@H](N)CCCCNC(=O)CC[C@H](NC(=O)CCCCCCCCCCCCCCCCCCC(=O)O)C(=O)O)C(=O)N[C@@H](CC(N)=O)C(=O)N[C@@H]([C@@H](C)O)C(=O)N[C@@H](C)C(=O)N[C@@H]([C@@H](C)O)C(=O)N1)[C@@H](C)O)C(=O)N1CCC[C@H]1C(=O)N[C@@H](CO)C(=O)N[C@@H](CO)C(=O)N[C@H](C(=O)N[C@@H](CC(N)=O)C(=O)N[C@H](C(=O)NCC(=O)N1CCC[C@H]1C(=O)N[C@@H](CC(N)=O)C(=O)N[C@H](C(=O)N1CCC[C@H]1C(N)=O)[C@@H](C)O)C(C)C)[C@@H](C)O

One assay has as its target T1, human amylin 3(a) receptor (human calcitonin receptor co-expressed with RAMP-3) (human, UniProt P30988 25-474; O60896 24-148, limits assumed).
T1 construct: whole, on cells; Whole cells in the luciferase assay (Assay (II)a); also called hAmylin-R; hAmylinR
T1 sequence (looked up) 1: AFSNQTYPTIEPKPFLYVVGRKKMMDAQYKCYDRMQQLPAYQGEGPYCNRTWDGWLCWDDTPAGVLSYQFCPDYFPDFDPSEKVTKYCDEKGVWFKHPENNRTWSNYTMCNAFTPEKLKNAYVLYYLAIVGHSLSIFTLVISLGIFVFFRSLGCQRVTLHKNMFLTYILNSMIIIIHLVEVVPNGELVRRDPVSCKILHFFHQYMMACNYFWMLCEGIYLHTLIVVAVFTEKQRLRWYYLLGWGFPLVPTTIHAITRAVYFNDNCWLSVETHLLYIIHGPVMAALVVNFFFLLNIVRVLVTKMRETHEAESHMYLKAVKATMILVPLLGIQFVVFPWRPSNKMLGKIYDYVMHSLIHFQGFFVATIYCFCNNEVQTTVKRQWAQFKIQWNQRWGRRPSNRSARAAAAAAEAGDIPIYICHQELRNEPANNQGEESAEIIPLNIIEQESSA
T1 sequence (looked up) 2: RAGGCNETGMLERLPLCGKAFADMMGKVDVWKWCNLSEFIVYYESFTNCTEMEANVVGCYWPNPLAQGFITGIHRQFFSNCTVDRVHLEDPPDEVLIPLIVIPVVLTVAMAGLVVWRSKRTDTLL
The assay is described as follows: SPA competition binding, membranes of Amylin 3(a)/CRE-luc BHK cells, displacement of 125I-rat amylin (Assay (V)). The method, then: The binding assay was performed using scintillation proximity assay (SPA) beads (RPNQ0001) from PerkinElmer and cell membranes from the Amylin 3(a)/CRE-luc cells (as described in Assay (II)) were used. Membranes were prepared in the following way; the cells were rinsed with PBS and incubated with Versene for approximately 5 min before harvesting. The cells were flushed with PBS and the cell-suspension was centrifuged for 5 min at 1000 rpm. Cells were homogenized (ultrathurrax) in a buffer containing 20 mM Na-HEPES and 10 mM EDTA (pH 7.4) and centrifuged at 20.000 rpm for 15 min. The resulting pellet was resuspended, homogenized and centrifuged (20.000 rpm, 15 min) in a buffer containing 20 mM Na-HEPES and 0.1 mM EDTA (pH 7.4, buffer 2). The resulting pellet was resuspended in buffer 2 and protein concentration was measured (BCA protein Assay, Pierce). The homogenate was kept cold during the whole procedure. The membranes were kept at −80° C. until use. The assay was performed in a 384 well Optiplate (PerkinElmer) in a total volume of 40 ul. Membranes were mixed with SPA beads. Final concentration of membranes 35 ng/μL final and SPA beads was 0.05 mg/well. Test-compounds were dissolved in DMSO and further diluted in assay buffer (50 mM Hepes, pH 7.4, 1 mM CaCl2, 5 mM MgCl₂, 0.1% OA and 0.02% Tween20). […] The final mixture was incubated with shaking at 400 rpm for 120 min at 25° C. prior to centrifugation (1500 rpm, 10 min). Samples were analyzed on TopCounter™ (Packard). The IC₅₀ was calculated using (one site binding competition analysis) GraphPad Prism5 as a measure of receptor affinity.
For orientation: Displacement assays read how much labelled ligand stays bound in the presence of the test substance.
For B1, the half-inhibitory concentration (IC50) (commonly the concentration needed to halve the response being measured) came out at 387 pM.
Still for that read-out and setting: the figure for B2 is 121 pM; for B3 it is 957 pM.
Still for that read-out and setting: the same measure for B4: 131 pM.
On the same count and under the same terms, the same measure for B5: 214 pM.

In a further assay the target is T1, human amylin 3(a) receptor (human …). The assay is described as follows: cell-based or functional assay.
On to B1, for which the “hAmylin-R funct. EC50” value stood at 405 pM.
For B2, the “hAmylin-R funct. EC50” value is 225 pM.
In the case of B3, the “hAmylin-R funct. EC50” value worked out at 703 pM.
Still for that read-out and setting: the same measure for B4: 52 pM; for B5: 105 pM.

In the next assay the target is T2, human calcitonin receptor (human, UniProt P30988 25-474).
T2 sequence (looked up): T1 sequence (looked up) 1
As to the kind of experiment: cell-based or functional assay.
With B1, the “Ratio hCT/hAmylin funct.” value stood at 6.3 and the “hCTR funct. EC50” value was found to be 2540 pM.
Taken in the same sequence, the figures for B2 were 10.5 and 2360 pM.
For B3, in that order: 10.6 and 7430 pM.
Taken in the same sequence, the figures for B4 were 0.8 and 40 pM.
Regarding B5, the “Ratio hCT/hAmylin funct.” value came out at 0.9 and the “hCTR funct. EC50” value worked out at 90 pM.
